Measurements published in publication PMC4599966.

Tests used:
LC3C (two-hybrid bait) = LC3C (two-hybrid bait) (UniProt Q9BXW4); experiment: mammalian 2-hybrid assay; settings: CHOK.1 cells; LC3C as bait; parent: est. 79; read off a plot
LC3B (two-hybrid bait) = LC3B (two-hybrid bait) (UniProt Q9GZQ8); experiment: mammalian 2-hybrid assay; settings: CHOK.1 cells, LC3B as bait, read off a plot
[1] = target: TAX1BP1 zinc finger domain (human) (UniProt Q86VP1); experiment: NMR titration; 1H/15N HSQC of 15N-labelled TAX1BP1 zinc fingers (P0 150 μM) with increasing unlabelled ubiquitin, and the reciprocal titration of 15N-labelled ubiquitin; PBS, 10 mM β-mercaptoethanol, 20°C; shift changes of peaks of each zinc finger fitted to a single site-binding model

Chain of UniProt Q9BXW4 (Q9BXW4 whole entry): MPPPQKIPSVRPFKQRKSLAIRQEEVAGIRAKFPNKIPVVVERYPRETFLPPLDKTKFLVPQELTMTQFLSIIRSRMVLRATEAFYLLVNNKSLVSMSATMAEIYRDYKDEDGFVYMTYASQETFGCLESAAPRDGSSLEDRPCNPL

| response (LC3C (two-hybrid bait)) | response (LC3B (two-hybrid bait); parent: est. 85) | response (LC3B (two-hybrid bait); parent: est. 98) | KD, site ZF1 (N-terminal module) [1] | KD, site ZF2 (C-terminal module) [1] | Substance |
| --- | --- | --- | --- | --- | --- |
| 34 | 20 | 27 | – | – | TAX1BP1 full-length wild-type (two-hybrid prey) (from UniProt Q86VP1) V144S |
| – | – | – | 70 µM | 7 µM | mono-ubiquitin (from UniProt P0CG48 1-76) (natural protein) |
